In the test the target is Cyanophycin synthetase 1 (CphA1) from Tatumella morbirosei DSM 23827 (Tatumella morbirosei DSM 23827). Put plainly: SEC. (In general: Size exclusion chromatography separates by hydrodynamic size, large species first.)

The stoichiometry N is the number of molecules, sites or subunits per partner or assembly. On to “Cyanophycin synthetase 1 (CphA1) from Tatumella morbirosei DSM 23827 (enzyme)”, for which the stoichiometry N amounted to 4.
